From PMC2879511 (Nucleic Acids Research, 2010)

T1: Med4 (recombinant) (S. cerevisiae, UniProt Q12343 1-284)
T1 sequence: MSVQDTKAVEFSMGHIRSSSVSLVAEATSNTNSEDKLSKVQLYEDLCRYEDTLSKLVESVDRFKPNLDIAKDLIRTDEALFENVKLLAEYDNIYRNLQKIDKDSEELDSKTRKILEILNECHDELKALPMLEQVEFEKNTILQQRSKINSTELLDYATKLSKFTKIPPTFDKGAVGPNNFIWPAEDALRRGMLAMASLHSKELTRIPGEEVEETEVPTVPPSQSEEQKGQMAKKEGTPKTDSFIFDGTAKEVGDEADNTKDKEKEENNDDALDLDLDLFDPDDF

B1: 4-subunit middle module complex Med7/10/21/31-His6 (complex)
chain 1: MSNDPGNEVSSLYPPPPPYVKFFTQSNLEKLPKYKEKKAASAKQTAPNNSNGGSEEEITCALDYLIPPPMPKNQQYRAFGSIWQVKDQLPDLESMGLTQLYKKSTENESTNYQYKIQELRKLLKSLLLNYLELIGVLSINPDMYERKVENIRTILVNIHHLLNEYRPHQSRESLIMLLEEQLEYKRGEIREIEQVCKQVHDKLTSIQDTLRTGSQSPPSSSQ
chain 2: MNGNSTNNEQLQQELATTQDQVASIIESFVELGVSIYDFPGTPEATKGMITNLQRNVDRLYKLNVRSNDPQSSLSKVDIPLEVVQYIEDGRNPDIYTREFVEAIRRSNQYQRGKMHGLKQLRDSLADKIVDEFPELKEPVEDIIKRTSPIDNVSNTH
chain 3: MTDRLTQLQICLDQMTEQFCATLNYIDKNHGFERLTVNEPQMSDKHATVVPPEEFSNTIDELSTDIILKTRQINKLIDSLPGVDVSAEEQLRKIDMLQKKLVEVEDEKIEAIKKKEKLLRHVDSLIEDFVDGIANSKKST
chain 4: […]
B2: Med21 (recombinant) (natural protein)
chain: B1 chain 3
B3: Med7 (recombinant) (natural protein)
chain: B1 chain 1
B4: Med10 (recombinant) (natural protein)
chain: B1 chain 2
B5: StrepII-tagged Med1 (natural protein)
chain: MVEGDSYVETLDSMIELFKDYKPGSITLENITRLCQTLGLESFTEELSNELSRLSTASKIIVIDVDYNKKQDRIQDVKLVLASNFDNFDYFNQRDGEHEKSNILLNSLTKYPDLKAFHNNLKFLYLLDAYSHIESDSTSHNNGSSDKSLDSSNASFNNQGKLDLFKYFTELSHYIRQCFQDNCCDFKVRTNLNDKFGIYILTQGINGKEVPLAKIYLEENKSDSQYRFYEYIYSQETKSWINESAENFSNGISLVMEIVANAKESNYTDLIWFPEDFISPELIIDKVTCSSNSSSSPPIIDLFSNNNYNSRIQLMNDFTTKLINIKKFDISNDNLDLISEILKWVQWSRIVLQNVFKLVSTPSSNSNSSELEPDYQAPFSTSTKDKNSSTSNTEPIPRSNRHGSVVEASRRRRSSTNKSKRPSITEAMMLKEEGLQQFNLHEILSEPAIEEENGDSIKEHSTTMDGANDLGFTASVSNQENAGTDIVMEDHGVLQGTSQNYGTATADDADIEMKDVSSKPSKPESSVLQLIVSEDHIILDTISECNLYDDVKCWSKFIEKFQDIVS
B6: Med9 (recombinant) (natural protein)
chain: MNLQNNVLNQIHQILLPTNPTLDKPNAEATKEEFSSAENRDEKDYLTNQQPKNLSTPSTSSNGEFIPHIFYSLHQIRKDPNNLSNQLETLTGSIRHRLKLCKSLISENEDTKDLLSKSPSEWQDIIHQREQELQIKRDVLDDLYRKLQR
B7: 6-subunit middle module complex Med4/7/9/10/21/31 (complex)
chain 1: T1 sequence
chain 2: B1 chain 1
chain 3: B6 chain
chain 4: B1 chain 2
chain 5: B1 chain 3
chain 6: […]
B8: Med4/9 heterodimer (complex)
chain 1: T1 sequence
chain 2: B6 chain

Legend:
native MS = molecular target: the molecule itself; assay: native MS
Med7 (recombinant) = molecular target: B3; assay: native MS
Med4 (recombinant) [1] = molecular target: T1, Med4 (recombinant); assay: native MS
[2] = molecular target: 6-subunit complex Med4/7/9/10/21/31 of the coexpressed 7-subunit middle module (S. cerevisiae, UniProt Q12343;Q08278;P33308;Q06213;P47822;P38633); assay: native MS
Med4 (recombinant) [3] = molecular target: T1, Med4 (recombinant); assay: copurification after coexpression
[4] = molecular target: B1; assay: native MS

Binder: B1
stoichiometry N (native MS): 2

Binder: B2
binding result (Med7 (recombinant)): binds

Binder: B3
binding result (Med4 (recombinant) [1]): binds

Binder: B4
binding result (Med7 (recombinant)): binds

Binder: B5
stoichiometry N [2]: 1

Binder: B6
binding result (Med4 (recombinant) [3]): binds

Binder: B7
stoichiometry N (native MS): 2

Binder: B8
stoichiometry N [4]: 1
